This note sets out measurements from US20250066499A1 (SUNSHINE GUOJIAN PHARMACEUTICAL SHANGHAI, published 2025).

One experiment concerns the target T1, CD73-ND-Y132A (human, UniProt P21589 27-317).
T1 construct: Alanine mutant of CD73-ND
T1 sequence: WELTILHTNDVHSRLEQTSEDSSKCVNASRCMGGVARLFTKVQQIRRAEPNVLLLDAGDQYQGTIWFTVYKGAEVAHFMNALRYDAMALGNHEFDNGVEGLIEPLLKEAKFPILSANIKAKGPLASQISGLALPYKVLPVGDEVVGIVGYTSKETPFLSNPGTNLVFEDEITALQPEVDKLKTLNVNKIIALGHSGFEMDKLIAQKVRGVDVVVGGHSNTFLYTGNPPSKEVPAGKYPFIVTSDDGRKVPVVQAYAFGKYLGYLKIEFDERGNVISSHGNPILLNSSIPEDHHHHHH
As to the kind of experiment: ELISA; decline multiple of EC50 against CD73-ND. Here is the method:
(§1) The ELISA plates were coated with SA protein diluted to 1.5 μg/mL in coating buffer (50 mM carbonate coating buffer, pH 9.6) and incubated overnight at 4° C. The supernatant was discarded, and the plates were washed three times with PBST. Then, 5% skimmed milk powder prepared with PBS was added for blocking and the plates were incubated for 2 h at 37° C. After washing the plates once with PBST, CD73-biotin protein (prepared by biotinylating CD73-His protein according to the EZ-Link NHS-Biotin Reagent instructions) was diluted to 0.5 μg/mL and added at 100 μL/well for incubation at room temperature for 1 h. The plates were washed three times with PBST, and the prepared murine-derived monoclonal antibodies against human CD73 were serially diluted with 1% BSA buffer prepared with PBST and added to the ELISA plates at 100 μl/well. The plates were incubated at 37° C. for 1 h. After washing the plates three times with PBST, HRP-labeled goat anti-mouse IgG secondary antibody was added and the plates were incubated for 30 min at 37° C. After washing the plates three times with PBST, the residual droplets were patted dry on absorbent paper as much as possible. Then, 100 μl of TMB color developing solution was added to each well, and the plates were incubated in the dark at room temperature for 5 min for color development. Subsequently, 50 μl of 2M H₂SO₄ stop solution was added to each well to terminate the substrate reaction. The OD values were read at 450 nm using a multimode microplate reader to analyze the binding ability of the tested antibodies to the target antigen human CD73-His.
(§2) Referring to the experimental method in Example 3, the affinity of 48A11-HuV33 for various mutant proteins of CD73-ND was determined. The SA protein was diluted to 1 μg/mL for coating the ELISA plates, and the biotinylated CD73 protein (CD73-biotin) was used at a concentration of 0.1 μg/mL.
(ELISA stands for enzyme-linked immunosorbent assay.)

The target of another experiment is T2, CD73-ND-K136A (human, UniProt P21589 27-317).
T2 construct: Alanine mutant of CD73-ND
T2 sequence: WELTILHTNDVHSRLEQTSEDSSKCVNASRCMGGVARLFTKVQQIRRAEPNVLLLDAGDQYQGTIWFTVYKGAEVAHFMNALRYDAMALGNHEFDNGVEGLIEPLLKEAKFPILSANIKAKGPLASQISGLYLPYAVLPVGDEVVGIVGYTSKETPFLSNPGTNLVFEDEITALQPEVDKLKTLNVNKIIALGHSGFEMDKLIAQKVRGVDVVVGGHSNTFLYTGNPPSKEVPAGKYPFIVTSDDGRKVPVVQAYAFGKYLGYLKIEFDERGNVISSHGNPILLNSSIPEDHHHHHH
In words: ELISA; decline multiple of EC50 against CD73-ND. As for the experimental part:
as §1, §2

A further experiment has as its target T3, CD73-ND-P134A (human, UniProt P21589 27-317).
T3 construct: Alanine mutant of CD73-ND
T3 sequence: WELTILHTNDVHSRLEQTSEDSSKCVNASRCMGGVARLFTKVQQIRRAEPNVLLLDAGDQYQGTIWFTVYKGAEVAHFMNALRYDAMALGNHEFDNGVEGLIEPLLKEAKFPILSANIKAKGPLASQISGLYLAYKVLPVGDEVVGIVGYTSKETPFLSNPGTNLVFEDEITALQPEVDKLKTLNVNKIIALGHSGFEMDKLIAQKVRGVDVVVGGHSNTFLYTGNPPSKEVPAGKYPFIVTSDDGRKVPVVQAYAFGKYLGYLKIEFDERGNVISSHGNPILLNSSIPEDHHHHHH
In words: ELISA; decline multiple of EC50 against CD73-ND. Here is the method: as §1, §2

The target in the next experiment is T4, CD73-ND-L138A (human, UniProt P21589 27-317).
T4 construct: Alanine mutant of CD73-ND
T4 sequence: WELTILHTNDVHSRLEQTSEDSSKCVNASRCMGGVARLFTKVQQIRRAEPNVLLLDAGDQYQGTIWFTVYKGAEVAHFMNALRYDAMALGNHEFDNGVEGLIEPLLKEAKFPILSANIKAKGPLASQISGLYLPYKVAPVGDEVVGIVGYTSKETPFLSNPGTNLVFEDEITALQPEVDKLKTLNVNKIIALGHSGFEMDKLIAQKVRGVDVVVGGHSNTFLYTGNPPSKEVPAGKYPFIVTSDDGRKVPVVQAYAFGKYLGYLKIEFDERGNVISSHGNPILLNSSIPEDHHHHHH
In words: ELISA; decline multiple of EC50 against CD73-ND. Here is the method:
as §1, §2

The target of a further experiment is T5, CD73-ND-Y135A (human, UniProt P21589 27-317).
T5 construct: Alanine mutant of CD73-ND
T5 sequence: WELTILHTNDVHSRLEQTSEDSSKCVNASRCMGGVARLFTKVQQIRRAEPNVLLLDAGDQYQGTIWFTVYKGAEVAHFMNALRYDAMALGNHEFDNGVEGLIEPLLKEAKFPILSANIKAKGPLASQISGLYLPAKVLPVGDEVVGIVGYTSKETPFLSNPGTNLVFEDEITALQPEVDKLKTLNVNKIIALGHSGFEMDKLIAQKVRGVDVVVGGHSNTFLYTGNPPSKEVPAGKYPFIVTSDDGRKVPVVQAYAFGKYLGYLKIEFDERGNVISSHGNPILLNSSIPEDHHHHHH
In words: ELISA; decline multiple of EC50 against CD73-ND. As for the experimental part:
as §1, §2

The next experiment has as its target T6, CD73-ND-V140A (human, UniProt P21589 27-317).
T6 construct: Alanine mutant of CD73-ND
T6 sequence: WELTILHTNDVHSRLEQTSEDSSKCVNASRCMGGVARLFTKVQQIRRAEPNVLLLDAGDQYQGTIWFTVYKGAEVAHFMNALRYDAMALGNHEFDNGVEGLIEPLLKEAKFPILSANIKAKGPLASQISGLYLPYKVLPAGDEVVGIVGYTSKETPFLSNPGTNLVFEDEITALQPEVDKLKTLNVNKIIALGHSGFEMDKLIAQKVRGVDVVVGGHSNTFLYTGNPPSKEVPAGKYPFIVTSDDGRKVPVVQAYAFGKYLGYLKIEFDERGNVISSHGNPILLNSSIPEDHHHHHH
In words: ELISA, biotinylated antigen on streptavidin plate. Here is the method: as §1, §2

B1: 48A11-HuV33 (antibody, human IgG4, V domains shown)
VH: QVQLVQSGAEVKKPGASVKVSCKASGYTFTSYWMHWVRQAPGQGLEWIGEINPSIGRTNYNEKFKSRVTLTRDTSTSTAYMELSSLRSEDTAVYYCARRVYGTMDYWGQGTLVTVSS
VL: DIQMTQSPSSLSASVGDRVTITCKASQDINSYLSWFQQKPGKSPKLLIYRANIWVDGVPSRFSGSGSGQDYTFTISSLQPEDIATYYCLQYDELYTFGQGTKVEIK
notes: Humanized
What is called EC50 is the midpoint of the concentration-response curve. As for B1, the “Ratio(EC50)” value was 69.2 fold with CD73-ND-Y132A; 1 fold in the experiment with CD73-ND-K136A; 1.3 fold with CD73-ND-P134A; 1.2 fold in the experiment with CD73-ND-L138A; 1.1 fold with CD73-ND-Y135A. The same molecule returned an EC50 with CD73-ND-V140A of 0.098 nM.
